For one assay, the target named is G11. As to the kind of experiment: ITC. For orientation: Isothermal titration calorimetry measures the heat released or taken up as one component is titrated into another.
The target of another assay is A3. Put plainly: ITC.

Where no end group is shown, it is not given here. [ ]: non-standard residue; d: D form. pS = N[C@@H](COP(=O)(O)O)C(=O)O

B1: phosphorylated Akt peptide (peptide)
peptide: RPHFPQF[pS]YSAS
Turning to B1, the Kd (usually the free concentration of one partner at which half of the binding sites on the other are occupied at equilibrium, for simple one-to-one binding) with G11 came out at 18.1 nM; in the assay with A3 it was 31.8 nM.

The values are drawn from paper PMC11681868 (2024).
